Assay results taken from publication PMC6620605 (Current biology : CB, 2019).

Target: T1, 6x His-SEPT9 (human septin 9, isoform 1 / isoform a) (human, UniProt Q9UHD8-1 1-586)
T1 sequence (looked up): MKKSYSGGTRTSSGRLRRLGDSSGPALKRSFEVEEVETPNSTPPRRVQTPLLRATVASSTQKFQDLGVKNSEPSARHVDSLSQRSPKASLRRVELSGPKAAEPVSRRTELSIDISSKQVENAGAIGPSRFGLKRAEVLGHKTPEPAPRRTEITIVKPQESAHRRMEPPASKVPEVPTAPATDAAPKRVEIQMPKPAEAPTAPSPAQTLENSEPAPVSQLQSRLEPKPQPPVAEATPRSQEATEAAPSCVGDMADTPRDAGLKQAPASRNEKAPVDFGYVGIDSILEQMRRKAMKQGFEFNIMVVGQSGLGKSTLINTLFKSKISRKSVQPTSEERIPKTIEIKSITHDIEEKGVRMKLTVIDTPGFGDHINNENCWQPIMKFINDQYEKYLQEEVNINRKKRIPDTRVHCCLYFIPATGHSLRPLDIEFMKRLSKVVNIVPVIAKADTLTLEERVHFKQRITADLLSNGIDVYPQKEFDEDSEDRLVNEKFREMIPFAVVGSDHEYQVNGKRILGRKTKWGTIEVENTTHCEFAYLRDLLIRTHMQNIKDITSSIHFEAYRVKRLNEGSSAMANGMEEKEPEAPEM
Test: pull-down

B1: GST-TSG101 UEV (TSG101 aa 1-145) (domain or fragment, human, UniProt Q99816-1 1-145, looked up)
chain: MAVSESQLKKMVSKYKYRDLTVRETVNVITLYKDLKPVLDSYVFNDGSSRELMNLTGTIPVPYRGNTYNIPICLWLLDTYPYNPPICFVKPTSSMTIKTGKHVDANGKIYLPYLHEWKHPQSDLLGLIQVMIVVFGDEPPVFSRP
B1: binds.
